One block for each binder: values may come before it.
Tests used:
[1] = molecular target: T1, Human CD39 antigen (human, UniProt P49961 38-478); assay: SPR (Biacore 8K), antibody captured on anti-human capture CM5 chip, antigen as analyte, 1:1 model
T1 construct: Antigen used as analyte in SPR; also called ENTPD1
T1 sequence (looked up): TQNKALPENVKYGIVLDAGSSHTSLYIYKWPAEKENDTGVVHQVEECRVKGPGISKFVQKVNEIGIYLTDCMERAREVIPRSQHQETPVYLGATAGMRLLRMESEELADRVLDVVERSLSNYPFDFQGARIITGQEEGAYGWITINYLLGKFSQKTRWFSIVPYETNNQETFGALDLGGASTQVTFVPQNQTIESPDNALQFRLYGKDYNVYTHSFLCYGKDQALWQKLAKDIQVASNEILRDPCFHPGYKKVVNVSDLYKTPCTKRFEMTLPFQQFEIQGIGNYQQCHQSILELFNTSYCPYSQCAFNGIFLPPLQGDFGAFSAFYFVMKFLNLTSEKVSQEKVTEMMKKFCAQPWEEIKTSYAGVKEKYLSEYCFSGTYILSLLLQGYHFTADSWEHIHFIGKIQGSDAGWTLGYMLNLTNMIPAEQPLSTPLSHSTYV
Experimental: (§1) An Anti-Human Capture-CM5 chip (GE, #BR-1005-30) was prepared using coupling methods of a Human Antibody Capture Kit (GE, #BR-1008-39) and an amino coupling kit (GE, BR-1000-50). The chip was equilibrated at room temperature for 20-30 mins and loaded into a Biacore 8K instrument. The antigen and antibody were diluted to an experimental working concentration using an equilibration buffer. The antigens were diluted with the equilibrium buffer to 50 nM, and then diluted three-fold for seven concentration gradients, and two zero concentrations (i.e., the equilibrium buffer) and one repeat concentration (typically the lowest concentration repeat) were set. Experimental analysis was performed on 10 antigen concentrations (2 zero concentrations, 7 gradient concentrations, and 1 repeated concentration) in a cyclic manner according to an order of antibody, antigen, and regeneration. The antigen injection flow rate was 30 μL/min, the binding time was 120 s, and the dissociation time was 600 s. Following the analysis, the data was analyzed using the corresponding analysis program to confirm that there was no obvious reference binding. Using Kinetics and a 1:1 binding model, the data was fit to obtain the kinetic related parameters Ka, Kd, and KD values of the bispecific antibodies and parental control antibodies.

[2] = molecular target: T2, Human CD73 antigen (human, UniProt P21589 27-547, limits assumed); assay: as above
T2 construct: Antigen used as analyte in SPR; also called NT5E
T2 sequence (looked up): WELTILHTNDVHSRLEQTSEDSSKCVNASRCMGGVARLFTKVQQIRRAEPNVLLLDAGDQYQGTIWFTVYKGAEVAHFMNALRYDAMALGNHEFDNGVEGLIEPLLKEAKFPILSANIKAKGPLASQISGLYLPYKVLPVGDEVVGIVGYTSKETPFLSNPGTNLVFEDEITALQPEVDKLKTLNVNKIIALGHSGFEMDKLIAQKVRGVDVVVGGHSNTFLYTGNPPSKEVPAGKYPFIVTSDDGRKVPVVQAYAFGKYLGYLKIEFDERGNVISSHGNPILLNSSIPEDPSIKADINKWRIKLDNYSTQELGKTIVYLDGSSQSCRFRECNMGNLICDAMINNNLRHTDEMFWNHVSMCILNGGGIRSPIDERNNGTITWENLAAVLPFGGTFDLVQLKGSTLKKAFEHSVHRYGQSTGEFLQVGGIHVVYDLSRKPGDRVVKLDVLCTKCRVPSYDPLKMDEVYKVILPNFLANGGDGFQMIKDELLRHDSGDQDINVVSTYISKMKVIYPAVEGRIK
Experimental: as §1

[3] = molecular target: T3, Human CD39 on CHOK1-huCD39-10B6 cells overexpressing CD39 (human, UniProt P49961 1-510); assay: cell-based or functional assay
T3 sequence (looked up): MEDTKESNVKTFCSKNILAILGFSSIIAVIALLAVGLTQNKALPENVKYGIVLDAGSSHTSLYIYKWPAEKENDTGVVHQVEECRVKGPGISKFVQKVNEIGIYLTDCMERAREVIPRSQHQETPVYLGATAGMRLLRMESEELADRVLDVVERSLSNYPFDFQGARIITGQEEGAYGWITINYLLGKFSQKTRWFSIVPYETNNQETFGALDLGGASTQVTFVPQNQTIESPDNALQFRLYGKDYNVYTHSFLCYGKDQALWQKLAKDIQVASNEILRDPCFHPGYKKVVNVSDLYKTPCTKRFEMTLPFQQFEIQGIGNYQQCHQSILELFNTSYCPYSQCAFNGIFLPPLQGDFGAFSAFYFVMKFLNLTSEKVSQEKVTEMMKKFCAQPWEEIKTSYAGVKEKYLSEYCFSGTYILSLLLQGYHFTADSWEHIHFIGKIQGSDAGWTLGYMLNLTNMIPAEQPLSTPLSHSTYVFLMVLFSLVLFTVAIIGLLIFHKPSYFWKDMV

[4] = molecular target: T4, Human CD73 on CHOK1-huCD73-3F4 cells overexpressing CD73 (human, UniProt P21589 27-549); assay: cell-based or functional assay
T4 sequence (looked up): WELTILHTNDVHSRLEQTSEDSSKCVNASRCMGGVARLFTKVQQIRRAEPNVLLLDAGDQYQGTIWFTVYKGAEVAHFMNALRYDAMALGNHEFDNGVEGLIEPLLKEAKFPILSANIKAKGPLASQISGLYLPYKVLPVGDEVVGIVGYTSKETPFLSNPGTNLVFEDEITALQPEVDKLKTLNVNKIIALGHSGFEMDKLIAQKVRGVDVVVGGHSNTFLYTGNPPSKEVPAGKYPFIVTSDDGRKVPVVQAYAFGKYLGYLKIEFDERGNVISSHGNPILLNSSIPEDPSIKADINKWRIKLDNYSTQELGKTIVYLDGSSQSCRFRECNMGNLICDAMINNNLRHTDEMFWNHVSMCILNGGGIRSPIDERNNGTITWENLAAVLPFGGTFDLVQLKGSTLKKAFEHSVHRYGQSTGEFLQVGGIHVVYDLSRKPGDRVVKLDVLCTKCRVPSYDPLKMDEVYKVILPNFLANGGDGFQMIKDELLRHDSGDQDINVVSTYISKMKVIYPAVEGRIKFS

[5] = molecular target: soluble recombinant protein CD73; assay: cell-based or functional assay
soluble recombinant protein CD73, sequence (P21589 whole entry): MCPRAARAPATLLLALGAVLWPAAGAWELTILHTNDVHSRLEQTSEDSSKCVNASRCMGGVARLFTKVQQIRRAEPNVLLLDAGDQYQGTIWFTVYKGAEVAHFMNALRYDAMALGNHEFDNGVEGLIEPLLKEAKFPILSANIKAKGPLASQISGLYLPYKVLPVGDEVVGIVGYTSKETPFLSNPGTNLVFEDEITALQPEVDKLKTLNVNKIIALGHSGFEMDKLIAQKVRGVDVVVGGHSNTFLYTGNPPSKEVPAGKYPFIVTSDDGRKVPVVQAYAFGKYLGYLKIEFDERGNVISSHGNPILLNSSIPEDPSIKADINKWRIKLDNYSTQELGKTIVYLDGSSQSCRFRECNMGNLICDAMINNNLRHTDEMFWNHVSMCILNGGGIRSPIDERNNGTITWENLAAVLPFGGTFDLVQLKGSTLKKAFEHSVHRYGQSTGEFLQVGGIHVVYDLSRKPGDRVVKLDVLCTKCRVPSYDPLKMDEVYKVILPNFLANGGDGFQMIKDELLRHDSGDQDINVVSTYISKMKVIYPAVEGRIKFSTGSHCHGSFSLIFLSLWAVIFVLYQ

B1: CD39/CD73 bispecific antibody 700035 (CD39-VHH-CD73-IgG) (bispecific antibody)
heavy: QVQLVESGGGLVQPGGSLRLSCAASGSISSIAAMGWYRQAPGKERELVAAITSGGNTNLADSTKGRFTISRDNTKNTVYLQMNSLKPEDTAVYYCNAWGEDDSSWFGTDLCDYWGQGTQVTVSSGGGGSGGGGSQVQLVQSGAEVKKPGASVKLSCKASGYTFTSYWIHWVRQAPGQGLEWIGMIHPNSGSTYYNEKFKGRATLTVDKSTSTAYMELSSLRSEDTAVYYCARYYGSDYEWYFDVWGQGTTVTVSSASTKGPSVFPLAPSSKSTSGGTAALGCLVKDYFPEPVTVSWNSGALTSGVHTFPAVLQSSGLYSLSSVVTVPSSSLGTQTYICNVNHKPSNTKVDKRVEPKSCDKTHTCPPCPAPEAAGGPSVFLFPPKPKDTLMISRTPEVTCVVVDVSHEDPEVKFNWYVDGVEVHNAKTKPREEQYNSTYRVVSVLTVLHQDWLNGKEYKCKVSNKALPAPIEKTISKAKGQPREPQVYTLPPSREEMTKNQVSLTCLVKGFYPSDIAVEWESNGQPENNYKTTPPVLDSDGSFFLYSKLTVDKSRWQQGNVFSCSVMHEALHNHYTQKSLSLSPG
light: DIQMTQSPSSMSASVGDRVTITCKASQNVRTAVVWYQQKPGKAPKALIYLASNRHTGVPDRFSGSGSGTDFTLTISSLQPEDFATYFCLQHWNYPYTFGQGTKLEIKRTVAAPSVFIFPPSDEQLKSGTASVVCLLNNFYPREAKVQWKVDNALQSGNSQESVTEQDSKDSTYSLSSTLTLSKADYEKHKVYACEVTHQGLSSPVTKSFNRGEC
Kd [1]: 70.8 pM
koff [1]: 9.28e-05 s⁻¹
kon [1]: 1.31e+06 M⁻¹ s⁻¹
Kd [2]: 341 pM
koff [2]: 0.000319 s⁻¹
kon [2]: 935000 M⁻¹ s⁻¹
EC50 (µg/mL), inhibition of CD39 ATPase activity on CHOK1-huCD39-10B6 cells (CellTiter Glo) [3]: 0.208 µg/mL
EC50 (µg/mL), inhibition of enzyme activity of membrane CD73 on CHOK1-huCD73-3F4 cells (CellTiter Glo) [4]: 0.615 µg/mL

Kd [1]: 91.8 pM
koff [1]: 9.54e-05 s⁻¹
kon [1]: 1.04e+06 M⁻¹ s⁻¹
Kd [2]: 425 pM
koff [2]: 0.000249 s⁻¹
kon [2]: 587000 M⁻¹ s⁻¹
EC50 (µg/mL), inhibition of enzyme activity of soluble CD73 protein (CellTiter Glo) [5]: 1.85 µg/mL
EC50 (µg/mL), inhibition of CD39 ATPase activity on CHOK1-huCD39-10B6 cells (CellTiter Glo) [3]: 0.187 µg/mL
B2: CD39/CD73 bispecific antibody 700038 (CD39-VHH-CD73-IgG) (bispecific antibody)
heavy: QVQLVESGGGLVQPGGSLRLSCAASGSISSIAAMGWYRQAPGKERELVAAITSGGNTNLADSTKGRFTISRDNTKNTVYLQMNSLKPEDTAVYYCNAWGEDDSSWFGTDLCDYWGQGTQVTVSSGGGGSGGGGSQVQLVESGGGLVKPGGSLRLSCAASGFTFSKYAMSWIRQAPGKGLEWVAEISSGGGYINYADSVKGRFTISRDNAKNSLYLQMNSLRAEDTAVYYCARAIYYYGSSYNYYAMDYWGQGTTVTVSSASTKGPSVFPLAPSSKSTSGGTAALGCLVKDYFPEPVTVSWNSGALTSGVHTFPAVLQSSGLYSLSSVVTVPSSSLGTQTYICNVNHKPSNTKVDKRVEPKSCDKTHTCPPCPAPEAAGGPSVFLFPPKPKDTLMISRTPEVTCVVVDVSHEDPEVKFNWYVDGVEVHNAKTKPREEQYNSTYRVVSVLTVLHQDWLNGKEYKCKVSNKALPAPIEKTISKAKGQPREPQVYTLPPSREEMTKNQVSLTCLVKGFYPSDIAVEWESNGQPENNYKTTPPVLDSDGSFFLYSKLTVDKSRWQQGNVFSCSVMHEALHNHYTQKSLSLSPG
light: DIQMTQSPSSLSASVGDRVTITCRASQDVGTAEAWYQQKPGKAPKLLIYWASTRHTGVPSRFSGSGSGTDFTLTISSLQPEDFATYYCQQYSSYPLTFGQGTKLEIKRTVAAPSVFIFPPSDEQLKSGTASVVCLLNNFYPREAKVQWKVDNALQSGNSQESVTEQDSKDSTYSLSSTLTLSKADYEKHKVYACEVTHQGLSSPVTKSFNRGEC

Source: US20250361314A1 (SHANGHAI HUAOTA BIOPHARMACEUTICAL, published 2025)
